A short description of this data set: yeast display, Sf9 membrane polyspecificity reagent, FACS + sequencing; frameworks hold sequencing errors. In a few lines:
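A synthetic nanobody library was expressed on Saccharomyces cerevisiae BJ5465 by galactose induction for 36–48 hours. The library was stained for 1 hour at 4 °C with 10% biotinylated, detergent-solubilized Sf9 membrane reagent and enriched with streptavidin microbeads before FACS. Low and high (top ~1%) gates were set on anti-HA fluorescence for expression and streptavidin fluorescence for reagent binding, and each polyreactivity label reflects the gate of origin.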
Consider “QVQLVESGGGLVQAGASLRLSCSPSGRTFYYYAMGWYRPAPGKEREWVAAISQSGGSTYYADSVKGRFTISRDNAKKTVFLQMNSLKPEDTAVYYCKAYYGFGHRIYDFWGQGTQVTVSS”, for which the “polyreactivity (PSR sort gate)” value is on record as “high polyreactivity”. With “HVQLVESGGGLVQAGGSQRLSCAPSGSTFYYNAMGSYRQAPGKERELVAAISKTGGSTYYADSVKGRFTISRDYAKNTVYLQMNSLKPVDTAVYYCAAVGSRGAWARRGYWGQGTHVTVSS”, the “polyreactivity (PSR sort gate)” value is listed as “high polyreactivity”.

Consider “QVQLVESGGGLVQAGGSLRLSCAASGSIFVGNVMGWYRQAPGKERELVAAIRFSGGNTYYADSVKGRFTISRDNAKNTVYLQMNSLKPEDTAVYYCAARYGQGSYPTKYYYWGQGTQVTVSS”, for which the “polyreactivity (PSR sort gate)” value is listed as “high polyreactivity”.

As to “QVHLVESGGGLVQAGGSLRLSCAASGSIFPYYVMGWYRQAPGKERELVAAISSGGNTYYADSVKGRFTISRDNAKNTVYLQMNSLKPEDTAVYYCNADKSYFVLLFGGYDYWGQGTQVTVSS”, the “polyreactivity (PSR sort gate)” value is “high polyreactivity”. The entry for “QVQLVESGGGLVQAGGSLRLSCAASGRIFVIYGMGWYRQAPGKERELVAAIRWTGGSTYYADSVKGRFTISRDNAQNTVYLQMNSLQPEDTAVYYCNAGSDRAIWPTHDYWGQGTQVTVSS” is “low polyreactivity”; for “QVQLVESGGGLVQAGGSLRLSCAASGIIFYLNAMGWYRQAPGKERELVAAISNGTSTNYADSVKGRFTISRDNAKNTVYLQMNSLKPEDTAVFYCAADDLRYNSRSSNYRGDYWGQGTQVTVSS” it is “low polyreactivity”; for “QVQLVESGGGLIQAGGSLRLRCAASGSTFPYYAMGWYRQAPGKEREFVAAIRFSGSSTYYADSVKGRFTISRDNAKNTVFLQMNRLIPEDTAVYYCATDYWLPSYSYDYWGQGTQVTVSS” it is “low polyreactivity”.

Regarding “QVQLVESGGGLVQAGGSLRLSCAASGRTFRYYAMGWYRQAPGKERELVAAITISSGSTYYADSVKGRFTISRDNAKNTVYLQMNSLKPEDTAVYYCAATRRYHFDYWGQGTQVTVSS”, the “polyreactivity (PSR sort gate)” value is given as “high polyreactivity”.

Turning to “QVQLVESGGGLDQAGGSLRLSCAASGFTLYRNAMGWYRQAPGKERELVAAITSSGGRTYYADSVKGRFTISRDNAKYTVYLQMNSLKPEDTAVYYCAAEFGLGYYYWGQGTQVNVSS”, the “polyreactivity (PSR sort gate)” value is reported as “high polyreactivity”.

As for “QVQLVESGGGLVQAGGSLRLSCAASGTTFPLYAMGWYRQAPGKERELVAAITSVGSTYYADSVKGRFTISRDNAKNTVYLQMNSLKPEDTAVYDCAAANYTYASRWYDYWGQGTQVTVSS”, the “polyreactivity (PSR sort gate)” value was “low polyreactivity”.

With “QVQLVESGGGLVQAGGSLRLSCAASGFTCASNDMGWSRQAPGKERELVAAITKGGGRTYYADSVKGRFTISRDNAKNTVYLQMNSLKPEDTAVYYCAARQLIKYDYWGPGTQVTVSS”, the “polyreactivity (PSR sort gate)” value was “low polyreactivity”.

Consider “QVQLVESGGGLVQAGGILRLSCAASGRIFVFYFMGWYRQAPGKERELVAAITRTGGSTYYADSVKGRFTISRDNAKNTVYLQMNSLKPEDTAFYYCATRYTRFRHFDYWGQGSQVTVSS”, for which the “polyreactivity (PSR sort gate)” value is given as “low polyreactivity”.

Take “QVQLVESGGGLVQAGGSLRLICAASGSTFEYSTMGWYRPAPGKERELVAAINSSGGRTYYADSVKGRFTISRDNAKNTVYLQMNSLKPEDTAVYYCNARWRSGPRAYDYWGQGTQVTLSS”: the “polyreactivity (PSR sort gate)” value was “high polyreactivity”. Under “QVHLVESGGGLVQAGGRLRLSCAASGFTFYKYAMGWYRQAPGKERELVAAITWSGGRTYYADSVKGRFTISRDNAKNTVYLQMNSLKPEDTAVYYCAADLHKLARYDYWGQGTQVTVSS” stands “high polyreactivity”; under “QVQLVESGGGLVQAGGSLRLSCAASGRTIYRYALGWYRQAHGKERELVSRIRSGGSTNYADSVKGRFTISRDNAKNTVYLQMNSLKPEDTAVYYCAARVLDLGKNTYYRYALGYWGQGTQVTVSS”, “high polyreactivity”; under “QVQLVESAGGLVQAGGSLRLSCPASGLTFGSYALGWYRQAPGKEREFVAAISWRGGSTYYADSVKGRFTISRDNAKNTVYLQMNSLKPEDTAVYYCAAPVTYGGSPYKYYYWGQGTQVTVSS”, “high polyreactivity”. Under “QVQLEESGGGIVQAGGSLRLSCDASGRIFVQYAIGCYRQEPGKEMELVAAISGSGGRTYYADSVKGSFTISRDTAKNTVYLQMNSLKPEDTAVYYCAARYTTGLSFWKPYYYWGQGTQVTVSS” stands “high polyreactivity”; under “QVQIVESGGGLVQAGGSLRLSCAASGRTFNGYAMGWYRQAPGKERELVARITYRGGGTYYADSVKGRFTISRDNAKNTVYLQMNSLKPEDTAVYYCNAVYHSSGRMGYWGQGTQVTLSS”, “high polyreactivity”; under “QVHLQESGGGLVQAGGSLRLSCAASGTISDSGLMGWYRQAPGKERELVAGISSGGINNYADSVKGRFTISRDNAKYTEYLQMNSLKPEDTAVYWGQGTQVTLSS”, “low polyreactivity”. As to “QVQLVESGGGLVQAGGSLRLSCAASGSTFRDYAMGWYRQAPGTERELVAAITSGGSTNYADSVKGRFTISRDNAKNSVYLQMISLKPEDTAVYYCNARYAGWYTPWGRQSVYSDDYWGQGTQVTVSS”, the “polyreactivity (PSR sort gate)” value was “low polyreactivity”.

Turning to “QVQLVESGVGLVQAGGSLRLSCASSGRTFPTYAMGWYRQAPGKERELVAAIRISGGRTYYADSVKGRFTISRDNAKNTVDLQMNSLKPEDTAVYYCAADTYASYESWGQGTQVSVSS”, the “polyreactivity (PSR sort gate)” value is given as “high polyreactivity”. The entry for “QVQLVESGGGLVQAGGSLRLSCAASGRTFSGNAMGWYRQAPGKERELVAGISTSGGSTYYADSVKGRFTISRDNANNTVYVQMNSLKPEDTAVYYCAADRPGSFTTMDYWGQGSQVTVSS” is “high polyreactivity”; for “QVQLVESGGGLVHAGGSLRLRCAASGSIFYDNAMGWYTQAPWKERELVASIRWSGDSTYYADSVKGRFTISRDNAKNTVYLQMTSLKPEDTAVYYCAADPVEPYFTAIAYGYWGQGTQVTVSS” it is “low polyreactivity”; for “QVQLVESGGGLVQAGGSIRLSCSASGSTFNIYAMGWYRKAPGKERELVAAISGNGDRTYYADSVKGRFTISRDNAKNTVYLQMTSLKPEDTAVYYCAAKYYGWGQGTQVTVSS” it is “high polyreactivity”. The entry for “QVQLVESGGGLVQAGGSLRLSCAASGRTFVFYAMGWYRQAPGKESEFVARITWSGGRTFYADSVKGRFTISRDNAKNTVYLQMNSLKPEDTAVYYCAARGHDAVIATRYDYWGQGTQVTVSS” is “high polyreactivity”; for “QVQLVESGGGLVQAGGSLRLSCAASGRTFGWYAMGWYRQAPGKERELVASITQRGGRTYYADSVKGRFTISRDNAKNTVYLQMNSLKPEDTAVYYCAAKTSPGMYYWGQGTQVTVSS” it is “high polyreactivity”.

Consider “QVQLVESGGGLVQAGGSLRLSCAASGIIFNLYAMGWYRQAPGKERELVAAISWSGGSTYYADSVKGRFTISRDNAKNTVYLQMNSLKPEDTAVYYCATSFLYPYFDEDDYWGQGTQVTVSS”, for which the “polyreactivity (PSR sort gate)” value is listed as “high polyreactivity”. Regarding “QVQLVESGGGLVQAGGSLRLSCPASGRILYLNVLGWYRQEPGKERELVASITVSGGITYYADSVKGRFTISRDNAKNTVYLQMNSLKPEDTAVYYCAVDAYPPFFYFTSVWFSYDYWGQGTQVTVSS”, the “polyreactivity (PSR sort gate)” value was “low polyreactivity”.

For the sequence “QVQLVESGGGLVQAGGSLRLSCAASGSIFSTYAMGWYRQAPGKERELVATIRRGGSTYYADSVKGRFTISRDNAKNTVYLQMNSLKPEDTAVYYCAATVSSYPYYRYYSWGQGTQVNVSS”, the “polyreactivity (PSR sort gate)” value is given as “high polyreactivity”.

Consider “QVQLVESGGGLVQARGSLRLSCAASGNTFVTNAIGWYRQAPGKVRELVAAINSSGGSTYYADSVKGRFTISRDNAKNTVYLQMNSLKPEDTAVYYCAADPLGITSGYGYWGQGTQVNVSS”, for which the “polyreactivity (PSR sort gate)” value was “low polyreactivity”. Under “QVQLVESGGGLVQAGCSLRLSCAASGITFVPYAIGWYRQAPGKDRELVAAITGGGSTNYADSVKGRFTISRDNAKNTVYLQMNSLNQEDTAVYYCAKHAYGYYYSRSDYWGQGTQVTVSS” stands “low polyreactivity”; under “QVQLVESGGGLVQAGGSLRLSCAASGFTFDFYAMGWYRQAPGKERELVATISYSGASTYYADSVKGRFTISRDNAKNTIYLQLNSLKPEDTAVYYCNAESSYYYGTAAYEYWGQGTQVTVSS”, “low polyreactivity”; under “HLQLVESGGVLVQAGGSLRLSCASSGSTFRSNVMGWYRQAPGKAREFVAAITSSSATTYYADSVKGRFTISRDNAKNTVYLLINSLKPEDTAVYYCAAGGRKAGPAGGQYYYWGQGTQVTVSS”, “low polyreactivity”. In the case of “QVQLQESGGGLVLAGGSLRLSCSASGNNSVYGSMGWYRQAPGKEREFVATIDPGTNTNYADSVKDRFTISRDNAKNTVYLQMNSLKPEDTAVYYCAVEAGSDWPYRYWGQGTQVTVSS”, the “polyreactivity (PSR sort gate)” value is “low polyreactivity”.

With “QVQLVESGGGLVQAGGSLRLSCAASGFIFYKYAMGWYRQAPGKERELVAGITWNVGSTYYADSVKGRFTISRDNAKNTVYLQMNSMKPEDTAVYYCAARHSYLGGTISLLYDYWGQGTQVTVSS”, the “polyreactivity (PSR sort gate)” value is on record as “low polyreactivity”. The entry for “QVQLVESGGGLYQAGGSLRLTCAASGNIFYINTMGWYRQAPGKEMELVAAIEASDGSTYYADSVKGRFTISRDKAKNTVYLLMNSLKPEVTAVNYCATRRGYDSVYYFYTLWYYYWGQGTQVTVSS” is “low polyreactivity”. The entry for “QVQLVESGGGLVQAGGSLRLSCAASGFISTINVMGWYRQAPGKERELVAAITYIDGSTFYADSVKGRFTISRDNAKNTVYLQMNSLKPEDTAVYYCAADLYQWGAVFLYVRSTGLDYWGQGTQVTVSS” is “low polyreactivity”; for “QVQLVESGGGLVQAGGSLRLSCAASGRIFVYNAMGSYRQAPGKERELVAAINSGTITNSADSVKGRFTISRDNGKNTVYLQMNSRIPEDTAVSYCAAPWYPSTDYNYWGQGTQVTVSS” it is “low polyreactivity”. On to “QVQLVESGGGLVQAGGSLRLSCAASGRIFYAYAMGWYRQAPGKERELVATITYGGGSTYYADSVKGRFTISRDNAKNTVDLQMNSLKPEATAVYYCAADRTGSTLYTIRYYYWGQGTQVTVSS”, for which the “polyreactivity (PSR sort gate)” value is “low polyreactivity”. The entry for “QVQLVESWGGLVQAGGSLRLSCAASGSTFRSNAMGWYRQAPGKERELVAAITGSGGSTYYADSVKGRYTISRDNAKNTVYLQMNSLKPEDTAVYYCWGLGTQVTVSS” is “low polyreactivity”; for “QVQLVESGGGLVQAGGSLRLSCAASGLTFYYYAKGWYRQAPGKERDFVAAISRSGGTTYYADSVKGRYTISRDNAKNTVYLQMNSLKPEDTAVYYCNAQWCRYWPSQVIFDYWGQGTQVTVSS” it is “high polyreactivity”.
